Laboratory results taken from US10934559B2, “Hypersensitive ABA receptors” (The Regents of the University of California, priority 2014, dated 2021).
Substitutions are numbered along the chain they refer to. Numbers in names are those of the source. Read-outs that look alike come from different tables or passages of the source.

B1: A160V: PYR1 mutant A160V, SEQ ID NO:141; for ITC the cleaved recombinant protein with NH2-terminal QS appendage (protein)
chain: MPSELTPEERSELKNSIAEFHTYQLDPGSCSSLHAQRIHAPPELVWSIVRRFDKPQTYKHFIKSCSVEQNFEMRVGCTRDVIVISGLPANTSTERLDILDDERRVTGFSIIGGEHRLTNYKSVTTVHRFEKENRIWTVVLESYVVDMPEGNSEDDTRMFVDTVVKLNLQKLATVAEAMARNSGDGSGSQVT
modifications: N-terminal QS appendage for ITC; synthetic Arabidopsis PYR1 mutant A160V
B2: V81Y: PYR1 mutant V81Y, SEQ ID NO:127 (protein)
chain: B1 chain with V81Y, V160A
modifications: synthetic Arabidopsis PYR1 mutant V81Y
B3: I110C: PYR1 mutant I110C, SEQ ID NO:128 (protein)
chain: B1 chain with I110C, V160A
modifications: synthetic Arabidopsis PYR1 mutant I110C

Key:
HAB1 = experiment: PYR1 mutant-HAB1 yeast two-hybrid assay under different ABA concentrations (X-gal staining); format: cell-based; settings: lowest (+)-ABA concentration giving detectable X-gal staining; S. cerevisiae Y190 with pACT-HAB1; 30° C., 48 hours
Source text: The affinity of a receptor for a target ligand is typically determined by non-covalent interactions between ligand-binding residues and the ligand. Mutations in such residues can have negative, positive or neutral effects on the strength of the receptor—ligand interaction. The affinity of a receptor-ligand interaction is intrinsically correlated with the concentration of ligand required to elicit biological effects, with high affinity ligands requiring lower concentrations relative to low affinity ligands. A mutant receptor with increased affinity for a ligand can in some cases elicit greater biological effect relative to a wild type receptor, when both are activated under identical conditions by the same concentration of activating ligand. Thus, mutations that make a receptor hypersensitive to a ligand can be useful for engineering organisms that elicit stronger responses to the ligand relative to wild type. […] Based on these considerations, we set out to systematically establish specific ABA receptor mutations that increase ABA responsiveness. This was done by testing a collection of PYR1 variants with all possible single amino acid substitution mutations in ligand binding residues. Thus we conducted site-saturated mutagenesis of ABA-contacting residues, which we define as those that are within 5A or ABA or ABA-contacting water residues in available X-ray coordinates. This collection of mutants was constructed previously, as described in PCT Application No. PCT/US2012/043121 and Mosquna et al., Proc Natl Acad Sci USA 108: 20838-20843 (2011). This collection of mutants was made by mutagenizing a previously described pBD GAL-PYR1 template (Park, S.-Y., et al. Science 324, 1068-1071 ([…])). In response to ABA, this particular plasmid encodes a fusion protein that binds to a co-expressed GAL4 activation domain-HAB1 fusion protein, encoded by the plasmid pACT-HAB1. This binding reconstitutes a functional GAL4 transcriptional activator and subsequent transcription of a β-galactosidase reporter gene, which in turn enables colorimetric based detection of agonist promoted receptor-PP2C interaction when lysed cells are exposed to the substrate X-gal. The mutant clones were individually transformed into S. cerevisiae strain Y190 containing pACT-HAB1. Yeast transformants were selected for the presence of plasmids on synthetic dextrose (SD) agar plates lacking Leu and Trp (SD-LT) and examined for PP2C interactions by using X-gal staining to monitor β-gal reporter gene expression levels. Individual clones were arrayed into 96 well plates and then spotted onto SD-LT lawn (i.e. one-well) plates containing 0, 0.5 or 5.0 μM (+)-ABA. Each assay plate contained 95 mutant clones and one wild type PYR1 positive control clone. The spotted cells were cultured at 30° C. for 48 hours after which they were lysed by chloroform and stained with an X-gal solution, as previously described (Park, S.-Y., et al. (2009) Science 324, 1068-1071). […] After this initial screening exercise, all positives clones were retested on plates containing […] and stained for galactosidase activity as described above. Mutant clones showing detectable staining on 0.5 μM (+)-ABA or lower were scored as hypersensitive mutants. FIG. 1 depicts results of PYR1 mutant-HAB1 interactions as assayed in a yeast two-hybrid assay under different ABA concentrations, with darker spots indicating increased interaction.

[1] = previously measured, Dupeux et al. 2010; read-out: affinity of wild type PYR1 (Kd) measured using ITC; cited from earlier work
[2] = isothermal titration calorimetry (ITC) of receptor-ABA binding; settings: 600 μM (+)-ABA injected into 60 μM receptor; PBS, 1 mM 2-mercaptoethanol, 0.012% DMSO; single binding site model
Source text: The ligand sensitivity of PYR1 and HAB1 yeast two hybrid strains generally correlates with receptor affinity. To examine if this was the case for the hypersensitive mutations identified by our functional screens, we conducted isothermal titration calorimetry (ITC) to measure the heat produced by a mutant receptor-ABA binding reaction and infer the ligand binding dissociation constant (Kd). […] The PYR1-A160V mutant receptor was expressed in E. coli BL21(DE3) as a fusion to the small ubiquitin like protein SUMO, using the vector pSUMO (LifeSensors, USA), which improves the solubility of proteins in E. coli and contains an NH2-terminal hexa-histidine tag that facilitates purification using immobilized metal affinity chromatography (IMAC). PYR1 A160V was cloned into pSUMO by using PCR product generated from a pBD-PYR1(A160V) yeast two hybrid construct as template, and sequence validated. A short flexible linker and tobacco etch virus (TEV) protease cleavage site (sequence NH2-[…]-COOH; SEQ ID NO:411) was incorporated in between the SUMO tag and the receptor to enable cleavage of the recombinant protein by TEV protease, which yields PYR1(A160V) plus an NH2-terminal QS appendage. […]

| Kd [2] [µM] | Molecule | Minimal conc. For ABA response (HAB1) [µM] | Kd [1] [µM] |
| --- | --- | --- | --- |
|  | WT: Arabidopsis wildtype PYR1 ABA receptor, SEQ ID NO:1 [reference compound] | 1 | 97 ± 36 |
| 1.5 | B1 | 0.25 |  |
|  | B2 | 0.25 |  |
|  | B3 | 0.25 |  |
